This test has as its target T1, HsPlk4 PB3 (aa 884-970) (Homo sapiens), O00444.
T1 chain: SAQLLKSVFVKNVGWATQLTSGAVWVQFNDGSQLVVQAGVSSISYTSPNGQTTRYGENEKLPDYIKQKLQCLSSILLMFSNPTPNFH
The test can be described thus: SEC-MALS. The note with it: remark: other sources report otherwise.

B1: HsPlk4 PB3 (aa 884-970), O00444 884-970 (domain or fragment)
chain: SAQLLKSVFVKNVGWATQLTSGAVWVQFNDGSQLVVQAGVSSISYTSPNGQTTRYGENEKLPDYIKQKLQCLSSILLMFSNPTPNFH
Turning to B1, the stoichiometry N stood at 2.

Values taken from doi:10.1101/2021.11.15.468682.
